{"source": "paper PMC9847341", "about": "(Antibody Therapeutics, 2022)", "binders": {"B1": {"name": "humanized C59, second version (hC59): hC59-1 with the S67F reverse mutation in the kappa chain FR3 (antibody, V domains shown)", "VH": "EVQLVESGGGLVQPGGSLRLSCAASGFTISSDYYMCWVRQAPGKGLEWIGCIYIGSGTDTYYASWAKGRFTISRHNSKNTLYLQMNSLRAEDTAVYYCARDKGWSNAWGFYFQLWGQGTLVTVSS", "VL": "DIQMTQSPSSLSASVGDRVTITCQASQSIGKYLNWYQQKPGKAPKLLIYSSSSLASGVPSRFSGSGFGTDFTLTISSLQPEDFATYYCQQGYSYVDLENGFGGGTKVEI"}}, "key": {"[1]": {"target": "human chitinase 3-like-1 (hChi3l1) with C-terminal Avitag and His tag (Homo sapiens, UniProt P36222)", "sequence (P36222 22-383)": "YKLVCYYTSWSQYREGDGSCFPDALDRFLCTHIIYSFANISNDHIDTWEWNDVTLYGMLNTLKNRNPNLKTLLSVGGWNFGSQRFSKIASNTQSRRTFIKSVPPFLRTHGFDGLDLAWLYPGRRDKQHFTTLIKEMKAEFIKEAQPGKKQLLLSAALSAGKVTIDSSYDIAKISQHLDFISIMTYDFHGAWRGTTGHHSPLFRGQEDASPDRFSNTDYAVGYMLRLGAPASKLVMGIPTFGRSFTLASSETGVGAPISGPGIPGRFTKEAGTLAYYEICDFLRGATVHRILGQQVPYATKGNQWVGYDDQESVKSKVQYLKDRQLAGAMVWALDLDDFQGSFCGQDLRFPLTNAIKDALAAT", "experiment": "BLI"}, "[2]": {"target": "mouse chitinase 3-like-1 (mChi3l1) with C-terminal Avitag and His tag (Mus musculus, UniProt Q61362)", "sequence (Q61362 30-389)": "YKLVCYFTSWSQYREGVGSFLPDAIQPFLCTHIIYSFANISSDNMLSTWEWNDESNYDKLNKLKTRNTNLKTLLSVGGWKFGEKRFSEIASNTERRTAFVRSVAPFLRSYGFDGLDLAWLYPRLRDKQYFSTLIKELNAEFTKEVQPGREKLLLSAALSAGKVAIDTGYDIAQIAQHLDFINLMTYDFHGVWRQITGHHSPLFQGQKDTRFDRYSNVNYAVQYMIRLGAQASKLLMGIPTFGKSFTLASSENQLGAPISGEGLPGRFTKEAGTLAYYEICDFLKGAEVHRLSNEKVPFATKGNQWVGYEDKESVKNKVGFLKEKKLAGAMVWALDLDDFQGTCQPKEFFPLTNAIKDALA", "experiment": "BLI"}}, "data": [{"binder": "B1", "values": [{"measurement": "Kd", "setting": "[1]", "result": 9, "unit": "nM"}, {"measurement": "Kd", "setting": "[2]", "result": 7, "unit": "nM"}]}]}
